Reference: paper PMC12342132, “Mechanistic insights into the GEF activity of the human MON1A/CCZ1/C18orf8 complex” (Protein & Cell, 2025)

T1: C18orf8 (1–657) (human, UniProt Q96DM3 1-657)
T1 construct: Subunit of m3, written alone for the pairwise contacts in the structure
T1 sequence (looked up): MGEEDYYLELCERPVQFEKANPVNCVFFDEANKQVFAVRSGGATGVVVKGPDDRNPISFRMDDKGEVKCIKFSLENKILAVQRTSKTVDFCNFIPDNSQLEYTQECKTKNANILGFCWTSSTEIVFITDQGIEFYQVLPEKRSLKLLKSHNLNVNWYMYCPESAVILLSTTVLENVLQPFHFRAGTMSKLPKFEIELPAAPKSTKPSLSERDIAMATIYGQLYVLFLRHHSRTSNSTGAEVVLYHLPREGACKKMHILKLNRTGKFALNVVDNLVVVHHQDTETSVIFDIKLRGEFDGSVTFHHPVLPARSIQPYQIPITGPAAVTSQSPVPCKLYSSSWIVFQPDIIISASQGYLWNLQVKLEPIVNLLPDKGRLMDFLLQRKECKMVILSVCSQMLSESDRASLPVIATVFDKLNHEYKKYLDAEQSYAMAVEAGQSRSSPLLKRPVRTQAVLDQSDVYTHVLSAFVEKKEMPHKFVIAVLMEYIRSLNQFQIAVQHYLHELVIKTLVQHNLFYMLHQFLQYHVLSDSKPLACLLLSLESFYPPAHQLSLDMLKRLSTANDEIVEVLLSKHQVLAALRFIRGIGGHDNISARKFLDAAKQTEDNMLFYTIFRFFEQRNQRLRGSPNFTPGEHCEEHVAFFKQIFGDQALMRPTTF

B1: CCZ1 (1–482) (natural protein, human, UniProt P86791 1-482, looked up)
chain: MAAAAAGAGSGPWAAQEKQFPPALLSFFIYNPRFGPREGQEENKILFYHPNEVEKNEKIRNVGLCEAIVQFTRTFSPSKPAKSLHTQKNRQFFNEPEENFWMVMVVRNPIIEKQSKDGKPVIEYQEEELLDKVYSSVLRQCYSMYKLFNGTFLKAMEDGGVKLLKERLEKFFHRYLQTLHLQSCDLLDIFGGISFFPLDKMTYLKIQSFINRMEESLNIVKYTAFLYNDQLIWSGLEQDDMRILYKYLTTSLFPRHIEPELAGRDSPIRAEMPGNLQHYGRFLTGPLNLNDPDAKCRFPKIFVNTDDTYEELHLIVYKAMSAAVCFMIDASVHPTLDFCRRLDSIVGPQLTVLASDICEQFNINKRMSGSEKEPQFKFIYFNHMNLAEKSTVHMRKTPSVSLTSVHPDLMKILGDINSDFTRVDEDEEIIVKAMSDYWVVGKKSDRRELYVILNQKNANLIEVNEEVKKLCATQFNNIFFLD
notes: human CCZ1, residues 1-482; Subunit of m3, written alone for the pairwise contacts in the structure

Assays:
[1] = molecular target: T1, C18orf8 (1–657); assay: cryo-EM structure; MON1A (235–652)/CCZ1 (1–482)/C18orf8 (1–657)/Rab7A (1–181) T22N complex, 3.41 Å; settings: both partners purified
[2] = molecular target: B1; assay: as above; settings: both partners purified

binding result [1]	binding result [2]	Binder
binds	binds	MON1A (235–652) (domain or fragment, human, UniProt Q86VX9 235-652, looked up, Subunit of m3, written alone for the pairwise contacts in the structure) GTTEGDEEDATEAWRLHQKHVFVLSEAGKPVYSRYGSEEALSSTMGVMVALVSFLEADKNAIRSIHADGYKVVFVRRSPLVLVAVARTRQSAQELAQELLYIYYQILSLLTGAQLSHIFQQKQNYDLRRLLSGSERITDNLLQLMARDPSFLMGAARCLPLAAAVRDTVSASLQQARARSLVFSILLARNQLVALVRRKDQFLHPIDLHLLFNLISSSSSFREGEAWTPVCLPKFNAAGFFHAHISYLEPDTDLCLLLVSTDREDFFAVSDCRRRFQERLRKRGAHLALREALRTPYYSVAQVGIPDLRHFLYKSKSSGLFTSPEIEAPYTSEEEQERLLGLYQYLHSRAHNASRPLKTIYYTGPNENLLAWVTGAFELYMCYSPLGTKASAVSAIHKLMRWIRKEEDRLFILTPLTY
binds		B1
